The values below come from article PMC7772773 (2020).

First the molecules themselves.
B1: myc-HTR6 [mouse] / EGFP-RABL2B [human] (parent complex)
chain 1: MVPEPGPVNSSTPAWGPGPPPAPGGSGWVAAALCVVIVLTAAANSLLIALICTQPALRNTSNFFLVSLFTSDLMVGLVVMPPAMLNALYGRWVLARGLCLLWTAFDVMCCSASILNLCLISLDRYLLILSPLRYKLRMTAPRALALILGAWSLAALASFLPLLLGWHELGKARTSAPGQCRLLASLPYVLVASGVTFFLPSGAICFTYCRILLAARKQAVQVASLTTGTATAGQALETLQVPRTPRPGMESADSRRLTTKHSRKALKASLTLGILLSMFFVTWLPFFVASIAQAVCDCISPGLFDVLTWLGYCNSTMNPIIYPLFMRDFKRALGRFVPCVHCPPEHRASPASPSMWTSHSGARPGLSLQQVLPLPLPPNSDSDSASGGTSGLQLTAQLLLPGEATRDPPPPTRAPTVVNFFVTDSVEPEIRQHPLGSPMN
chain 2: MAEDKTKPSELDQGKYDADDNVKIICLGDSAVGKSKLMERFLMDGFQPQQLSTYALTLYKHTATVDGRTILVDFWDTAGQERFQSMHASYYHKAHACIMVFDVQRKVTYRNLSTWYTELREFRPEIPCIVVANKIDDINVTQKSFNFAKKFSLPLYFVSAADGTNVVKLFNDAIRLAVSYKQNSQDFMDEIFQELENFSLEQEEEDVPDQEQSSSIETPSEEAASPHS

Variants of B1 are the subject of one assay. Kind of assay: co-immunoprecipitation (IP anti-EGFP, Western blot anti-Myc), IP/input band quantitation; lysates from HEK293T cells; Input is 2.5% of lysate used for IP; parent: 100.
As to chain 1 R216A, chain 1 K217A, chain 1 Q218A, the percent of parent was 84%.
For chain 1 R216A, chain 1 K217A, chain 1 Q218A, chain 1 L398A, chain 1 L399A, chain 1 L400A, the percent of parent was found to be 105%.
Regarding chain 1 L398A, chain 1 L399A, chain 1 L400A, the percent of parent was 121%.

A further assay covers variants of B1. The description is as above. This is another data set of the same source.
For the variant chain 1 L398A, chain 1 L399A, chain 1 L400A, the percent of parent was determined as 103%.
